Test results reported in US20150276766A1.

Biological target: T1, recombinant GDF11 (UniProt O95390)
T1 sequence (looked up): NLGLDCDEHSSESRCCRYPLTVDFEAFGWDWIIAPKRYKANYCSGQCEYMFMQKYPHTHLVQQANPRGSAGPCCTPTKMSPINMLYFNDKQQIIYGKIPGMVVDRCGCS
Assay: sandwich ELISA, plates coated with mActRIIA-Fc, detected with anti-GDF8/11 antibodies

## mActRIIA-Fc (extracellular domain of murine ActRIIA fused to a murine Fc domain; the murine counterpart of SEQ ID NO:7) (from UniProt P27038 21-135) (Fc fusion)
  lowest concentration detected in ELISA: 100 pg/mL
